For experiment [1], the target named is recombinant human IL-5 (human) (UniProt P05113). As to the kind of experiment: cell-based or functional assay.
For experiment [2], the target named is Cynomolgus IL-5 (cynomolgus monkey). As to the kind of experiment: cell-based or functional assay.

The results in this text go back to US20210355205A1.

As to Mepolizumab (antibody), the Mean (pM): mean IC50, TF-1.6G4 cell line proliferation assay in experiment [1] came out at 534 pM; in experiment [2], 584 pM.
